Experimental data published in patent US12544447B2, “Nuclease-dendrimer formulations for Covid-19 and broad-spectrum antiviral therapy and prophylaxis” (priority 2020, dated 2026).
Read-outs that look alike come from different tables or passages of the source.

Tests used:
[1] = test system: HIV; details: published research; cited from earlier work
[2] = cited from earlier work
[3] = Aggregate net charge estimated from published data; format: physicochemical; details: calculated estimates from published data
Source text: To determine the resulting aggregate net charge of each mixture (mildly or highly) cationized RNase A may be fractionated according to net charge by cation-exchange chromatography. Based upon calculated estimates from published data, the aggregate net charge of the mildly cationized RNase obtained from the above methodology is approximately +11 to +13 and the aggregate net charge of the highly cationized RNase obtained from the above methodology is approximately +21 to +23.

[4] = test system: HEK293T cells; assay: Cytotoxicity of cationized RNase using HEK293T cells; format: cell-based, human
Procedure: In this example, initially, the cytotoxicity of cationized RNase using HEK293T cells is tested. Next, the highest dose with more than 80% surviving cells is selected for an anti-viral test of a co-treatment of RNase/DNase complexed with a highly cationic molecule dendrimer (the generation 2 poly PAMAM dendrimer described above) to enhance the efficacy of ribonucleases as anti-virus (HCoV-NL63/OC43) agents.
In this set of exemplar experiments, the same methodology, including the cellular compositions, viral samples, and RNase/DNase formulations from Example 1 are utilized in the various experimental combinations shown in FIG. 21.

[5] = test system: OC43 virus; assay: RT-qPCR of cell culture medium for OC43 virus; details: RNase 10 μg/mL, dendrimer 10 μM where present
Procedure: To conduct the RT-qPCR testing, cell culture medium was collected at 3 and 5 days after virus infection with or without mild RNase plus dendrimer treatment for RT-qPCR test. RNA from the infection virus were used for reverse transcriptase (RT) to direct complimentary DNA (cDNA) synthesis. The resulting cDNA was used as templates for the RT-qPCR reaction with a SYBR RT-PCR Kit. Reaction conditions were: 30 minutes RT at 50° C., 15 minutes at 94° C. for inactivation of reverse transcriptase (RT), followed by 40 cycles of 95° C. for 15 seconds, 60° C. for 45 seconds. Finally, conditions of 65° C. for 5 seconds and 95° C. for 5 seconds were used.
Melting curve analysis was performed under the condition of 95° C. for 60 seconds, 40° C. for 60 seconds, 65° C. for 1 second, followed by a slow increase from 65° C. to 95° C. at a rate of 0.07° C. per second.
Note that the limit for this PCR reaction is between 10-100 particles, which is sufficient to detect if a well is infected or has virus present.

[6] = test system: HCoV-OC43 virus; format: cell-based; details: OC43, HEK293T

Molecule | antiviral effect on HIV [1] | maximum tolerated dose (MTD) ([2]; intravenously weekly, patients with malignant mesothelioma) [mg/m2] | maximum tolerated dose (MTD) ([2]; of skin area, phase one clinical study) [μg/m^2] | aggregate net charge [3] | concentration with survival of 80% of the control cells ([4]; FIG. 22) [ng/mL] | virus detection in medium by RT-qPCR after 3 days ([5]; 3 days) | virus detection in medium by RT-qPCR after 5 days ([5]; 5 days) | effective reduction compared to the control group (TCID50) ([6]; 7.5 μg/ml) [×] | concentration with 80% survival of control cells, interpolated ([4]; interpolation of experimental results) [ng/mL] | effective reduction compared to the control group (TCID50) ([6]; highly cationized formulation)
ranpiRNase: ribonuclease enzyme found in the oocytes of the northern leopard frog (rana pipiens) (protein, UniProt P22069 1-104, looked up) Protein P-30: QDWLTFQKKHITNTRDVDCDNIMSTNLFHCKDKNTFIYSRPEPVKAICKGIIASKNVLTTSEFYLSDCNVTSRPCKYKLKKSTNKFCVTCENQAPVHFVGVGSC | shown antiviral activity against HIV | 960 | 960 |  |  |  |  |  |  | 
mildly cationized RNase: bovine pancreatic RNase A carboxyl groups amidated with ethylenediamine using 10 mg EDC; mixture of diversely modified proteins (protein, UniProt P61823 27-150, looked up, carboxyls amidated with ethylenediamine, mildly cationized, bovine pancreatic RNase A carboxyl groups amidated with ethylenediamine using 10 mg EDC; mixture of diversely modified proteins) Ribonuclease pancreatic: KETAAAKFERQHMDSSTSAASSSNYCNQMMKSRNLTKDRCKPVNTFVHESLADVQAVCSQKNVACKNGQTNCYQSYSTMSITDCRETGSSKYPNCAYKTTQANKHIIVACEGNPYVPVHFDASV |  |  |  | +11 to +13 | 10000 | detected | detected | 6.8 |  | 
highly cationized RNase: bovine pancreatic RNase A carboxyl groups amidated with ethylenediamine using EDC 80+80+40 mg; mixture of diversely modified proteins (protein, UniProt P61823 27-150, looked up, carboxyls amidated with ethylenediamine, highly cationized, bovine pancreatic RNase A carboxyl groups amidated with ethylenediamine using EDC 80+80+40 mg; mixture of diversely modified proteins) Ribonuclease pancreatic: KETAAAKFERQHMDSSTSAASSSNYCNQMMKSRNLTKDRCKPVNTFVHESLADVQAVCSQKNVACKNGQTNCYQSYSTMSITDCRETGSSKYPNCAYKTTQANKHIIVACEGNPYVPVHFDASV |  |  |  | +21 to +23 |  |  |  |  | 200 to 500 | negligible
